This is an account of results in PMC8614642.

The assay concerns the target recombinant K38 depolymerase region (residues 147-742) of the tailspike gp46 of Acinetobacter pittii phage vB_Api_3043-K38 (Acinetobacter pittii phage vB_Api_3043-K38). Briefly: SEC; analytical size exclusion on Superose 6 10/300 GL, 10 mM PBS pH 7.5, 4 °C, 0.75 mL/min, mass estimated from calibration standards.

A word on the stoichiometry N: it is a count of units in the complex or per binding partner.

With “recombinant K38 depolymerase region (residues 147-742) of the tailspike gp46 of Acinetobacter pittii phage vB_Api_3043-K38 (domain or fragment)”, the stoichiometry N is 3.
